For this experiment, the target named is recombinant human iduronate-2 sulfatase (rhIDS) (human) (UniProt P22304). The experiment can be described thus: cell-based or functional assay.
Sequence of recombinant human iduronate-2 sulfatase (rhIDS) (human) (P22304 26-550 limits assumed): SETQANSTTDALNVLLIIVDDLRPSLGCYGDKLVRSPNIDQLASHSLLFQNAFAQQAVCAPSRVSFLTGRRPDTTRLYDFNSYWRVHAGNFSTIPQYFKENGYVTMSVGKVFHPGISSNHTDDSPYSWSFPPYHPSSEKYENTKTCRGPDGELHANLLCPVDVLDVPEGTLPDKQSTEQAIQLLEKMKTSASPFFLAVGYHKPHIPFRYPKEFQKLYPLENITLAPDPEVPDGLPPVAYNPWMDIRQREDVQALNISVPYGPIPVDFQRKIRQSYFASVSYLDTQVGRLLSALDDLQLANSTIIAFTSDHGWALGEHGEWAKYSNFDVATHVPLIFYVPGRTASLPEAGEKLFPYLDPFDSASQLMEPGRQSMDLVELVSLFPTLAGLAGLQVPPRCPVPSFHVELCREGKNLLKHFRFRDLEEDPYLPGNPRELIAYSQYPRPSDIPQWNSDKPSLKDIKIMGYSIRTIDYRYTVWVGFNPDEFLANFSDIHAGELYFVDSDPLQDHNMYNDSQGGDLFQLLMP

B1: Columba livia Lip2-C1FGE-His6-HDEL fusion construct (enzyme)
chain: MVVIPGGVFTMGTDEPAIQQDGEWPVRKVHVNSFYMDRYEVSNEDFERFVNSTGYVTEAEKFGDSFVFEGMLSEEVKAEIHQAVAAAPWWLPVKGANWKHPEGPDSNISNRMDHPVLHVSWNDAVAFCTWAGKRLPTEAEWEYSCRGGLENRLFPWGNKLQPKGQHYANIWQGVFPTNNTAEDGYKGTAPVTAFPPNGYGLYNIVGNAWEWTADWWAVHHSTEEVHNPKGPSSGTDRVKKGGSYMCHKSYCYRYRCAARSQNTPDSSASNLGFRCAADASPELPHHHHHHHDEL
For the molecule B1, the % FGly (LC-MS); co-expression with ClFGE is 100%.

B2: Gallus gallus Lip2-GgFGE-His6-HDEL fusion construct (enzyme)
chain: GKETAPGGNCGCSASRSRGGEREAVATVRRYSAAANDGRSSGRGPMVAIPGGVFTMGTDEPEIQQDGEWPARRVHVNSFYMDQYEVSNQEFERFVNSTGYLTEAEKFGDSFVFEGMLSEEVKAEIHQAVAAAPWWLPVKGANWRQPEGPGSSILSRMDHPVLHVSWNDAVAFCTWAGKRLPTEAEWEYGCRGGLEKRLFPWGNKLQPKGQHYANIWQGVFPTNNTAEDGYKGTAPVTAFPPNGYGLYNIVGNAWEWTSDWWAVHHSADEAHNPKGPSSGTDRVKKGGSYMCHKSYCYRYRCAARSQNTPDSSASNLGFRCAADALPDPQHHHHHHHDEL
Take B2: the % FGly (LC-MS); co-expression with GgFGE was 78%.

B3: Monodelphis domestica Lip2-MdFGE-His6-HDEL fusion construct (enzyme)
chain: AARGLGSEAGSAAADAAHPAGTCGCGSPQRPGTAAHRYSREANVAEPASAERPVLTSQMAHIPAGVFTMGTDEPQIKQDGEGPARRVRINSFYMDLYEVSNAEFERFVNSTGYVTEAEKFGDSFVFDSMLSDQVKSDIHQAVAAAPWWLPVKGANWRHPEGPDSSILHRRDHPVLHVSWNDAVAYCTWAGKRLPTEAEWEYSCRGGLENRLFPWGNKLQPKGQHYANIWQGEFPVSNTGEDGYQGTAPVTAFPPNGYGLYNIVGNAWEWTSDWWTVHHSADETLDPKGPPSGSDRVKKGGSYMCHKSYCYRYRCAARSQNTPDSSASNLGFRCAADRLPDTHHHHHHHDEL
Take B3: the % FGly (LC-MS); co-expression with MdFGE came out at 100%.

B4: Hemicentrotus pulcherrimus FGE fusion protein (Lip2pre-HpFGE-6HIS-HDEL) (enzyme)
chain: ENEDINQNISPTQSHTTATTEEELAEARGEEIDSDPTSEGSGAGEGCGCGSSALNRNHDEDALGLALEENLHDHVQEGAALKYSREANDPISMDHPEANVGAFPRTNQMNFIEGGTFRMGTDKAKIYLDGESPSRLVTLDPYYFDVYEVSNSEFELFVNTTSYITEAEKFGDSFVLEARISEEVKKDISQVVAAAPWWLPVKGAEWRHPEGPDSSISSRMDHPVTHISWNDATAYCQWAGKRLPTEAEWENAARGGLNNRLFPWGNKLMPKDHHRVNIWQGEFPKVNTAEDGYEGTCPVTAFEPNGYGLYNTVGNAWEWVADWWTTVHSPESQNNPVGPDEGTDKVKKGGSYMCHISYCYRYRCEARSQNSPDSSACNLGFRCAATNLPEDIPCSNCNDSTPHHHHHHHDEL
Consider B4, for which the % FGly (LC-MS, cation exchange purified); OXYY1801 (20° C.), 1c rhIDS, 2c HpFGE amounted to 100%; the % FGly (LC-MS, cation exchange purified); OXYY1801 (24° C.), 1c rhIDS, 2c HpFGE turned out to be 100%; the % FGly (LC-MS, cation exchange purified); OXYY1801 (26° C.), 1c rhIDS, 2c HpFGE was 70.4%.
